Test results as given in the supplement of paper PMC7125110.
± gives the standard error. This sample holds only a part of the variants without activity.

B1: glmS ribozyme (parent)
chain: AUAAAAGCGCCAGAACUACAGAAAUGUAGUUGACGAGGAGGAGGUUUAUCGAAUUUUCGGCGGAUGCCUCCAAA

What was measured:
Conditions in all cases: with glucosamine-6-phosphate
glucosamine-6-phosphate [1] = variants of: B1; assay: self-cleavage kobs at 40 uM GlcN6P; higher = faster cleavage; RNA array
Summary of the method: (§1)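 In situ transcription by E. coli RNA polymerase produced barcoded ribozyme variants on sequenced MiSeq chips, and a hybridised Cy3 probe tracked them at 37 °C. Glucosamine-6-phosphate was flowed in at 40 μM to 10 mM in HEPES/KCl/Mg(OAc)2 buffer. kcat and KM were taken from weighted Michaelis–Menten fits of kobs values from exponential decay fits.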

glucosamine-6-phosphate [2] = variants of: B1; assay: self-cleavage kobs at 640 uM GlcN6P; higher = faster cleavage; RNA array
Summary of the method: as §1

glucosamine-6-phosphate [3] = variants of: B1; assay: self-cleavage kobs at 2500 uM GlcN6P; higher = faster cleavage; RNA array
Summary of the method: as §1

glucosamine-6-phosphate [4] = variants of: B1; assay: self-cleavage kobs at 160 uM GlcN6P; higher = faster cleavage; RNA array
Summary of the method: as §1

glucosamine-6-phosphate [5] = variants of: B1; assay: self-cleavage kobs at 10000 uM GlcN6P; higher = faster cleavage; RNA array
Summary of the method: as §1

Variant | self-cleavage kobs at 40 uM GlcN6P (glucosamine-6-phosphate [1]) [s⁻¹] | self-cleavage kobs at 640 uM GlcN6P (glucosamine-6-phosphate [2]) [s⁻¹] | self-cleavage kobs at 2500 uM GlcN6P (glucosamine-6-phosphate [3]) [s⁻¹] | self-cleavage kobs at 160 uM GlcN6P (glucosamine-6-phosphate [4]) [s⁻¹] | self-cleavage kobs at 10000 uM GlcN6P (glucosamine-6-phosphate [5]) [s⁻¹]
A39U U54G U55G | 0.000181 ± 6.2e-05 | 0.00525 ± 0.0012 | 0.0171 ± 0.0034 |  | 
G40C C50G | < 1e-05 |  | < 1e-05 | < 1e-05 | < 1e-05
C50A A64G C71U | < 1e-05 |  |  |  | 
G41U G63A | < 1e-05 | < 1e-05 | < 1e-05 |  | < 1e-05
C50U A52U | < 1e-05 | < 1e-05 | < 1e-05 | < 1e-05 | < 1e-05
G40A U55G C68G | < 1e-05 |  |  |  | 
G40U C68A | < 1e-05 | < 1e-05 | < 1e-05 | < 1e-05 | < 1e-05
A39G G40C C67U | < 1e-05 |  | < 1e-05 |  | < 1e-05
U47A U57G | < 1e-05 |  |  |  | 4.75e-05 ± 8.7e-06
C50G G63A C70G | 0.000105 ± 2.6e-05 | 0.000198 ± 4.3e-05 | 9.35e-05 ± 3e-05 |  | 8.99e-05 ± 1.5e-05
A39U G62U | < 1e-05 |  |  |  | < 1e-05
G40U U49C | < 1e-05 | < 1e-05 |  | < 1e-05 | < 1e-05
U45G C50A | < 1e-05 |  |  |  | 
G44A U56C G63A | < 1e-05 |  |  |  | < 1e-05
A48G G59U | < 1e-05 |  |  |  | 
G40U G63U | < 1e-05 |  |  | < 1e-05 | < 1e-05
G40C G41C | < 1e-05 |  |  |  | 6.89e-05 ± 1.3e-05
G41U U55G C68U C70U | < 1e-05 |  |  |  | 
G43U C71G | < 1e-05 | < 1e-05 |  | < 1e-05 | < 1e-05
G44A G59C | < 1e-05 | < 1e-05 | < 1e-05 | < 1e-05 | < 1e-05
U49A G51A U57A C58G | < 1e-05 |  |  |  | < 1e-05
A48U C68A | < 1e-05 | < 1e-05 |  |  | 
A39U G43A C67G | 0.000153 ± 4.5e-05 | 0.000465 ± 0.00019 | 0.000131 ± 6.2e-05 | 9.45e-05 ± 3.1e-05 | 0.00313 ± 0.00085

Variant | self-cleavage kobs at 40 uM GlcN6P (glucosamine-6-phosphate [1]) [s⁻¹] | self-cleavage kobs at 640 uM GlcN6P (glucosamine-6-phosphate [2]) [s⁻¹] | self-cleavage kobs at 2500 uM GlcN6P (glucosamine-6-phosphate [3]) [s⁻¹] | self-cleavage kobs at 160 uM GlcN6P (glucosamine-6-phosphate [4]) [s⁻¹] | self-cleavage kobs at 10000 uM GlcN6P (glucosamine-6-phosphate [5]) [s⁻¹]
A42G U56A G60U | < 1e-05 |  | < 1e-05 |  | < 1e-05
A48U G62U | < 1e-05 | < 1e-05 | < 1e-05 | < 1e-05 | < 1e-05
U46G U47G G59A U65G | < 1e-05 |  |  |  | 
A39C U49G | < 1e-05 |  | 4.21e-05 ± 1.9e-05 | < 1e-05 | 6.91e-05 ± 9.5e-06
A39G G59U | < 1e-05 |  |  | < 1e-05 | 5.72e-05 ± 9.8e-06
A42U G43U G60U | < 1e-05 |  |  |  | 
G43U U49A G60A C68U | < 1e-05 |  |  |  | < 1e-05
G43U C61U C68U | < 1e-05 | < 1e-05 |  |  | < 1e-05
U47A U55G | 0.000473 ± 8.1e-05 | 0.00869 ± 0.0018 | 0.0105 ± 0.0022 | 0.000805 ± 0.00018 | 0.0152 ± 0.0031
G51A U55G C68G | < 1e-05 |  |  |  | < 1e-05
A39C C50G U55C | < 1e-05 |  |  |  | < 1e-05
G40A G60A U69A | < 1e-05 |  |  |  | 
G40A U47A A53U | 6.84e-05 ± 2.5e-05 |  | 0.000618 ± 0.00018 |  | 
C50G C58A C68G C71U | 9.15e-05 ± 1.8e-05 |  |  |  | 0.00024 ± 5.2e-05
G43U G59A | < 1e-05 |  | < 1e-05 |  | < 1e-05
G43U G59C | < 1e-05 | < 1e-05 | < 1e-05 | < 1e-05 | < 1e-05
G38U U69G | 0.000121 ± 1.9e-05 | 9.8e-05 ± 4.7e-05 | 7.1e-05 ± 1.6e-05 |  | 4.47e-05 ± 9.9e-06
U46C G62C | < 1e-05 |  |  |  | < 1e-05
G44A A48U C67A | < 1e-05 |  |  |  | 0.000216 ± 5.2e-05
G41U G44C | < 1e-05 | < 1e-05 | < 1e-05 | < 1e-05 | < 1e-05
A39U C70U | 0.000786 ± 6.4e-05 | 0.00436 ± 0.00059 | 0.0108 ± 0.0033 | 0.00158 ± 0.00038 | 0.0395 ± 0.0076
U46G G60U | < 1e-05 |  |  | < 1e-05 | < 1e-05
G43A C68U | 0.00208 ± 0.00023 | 0.0114 ± 0.0021 | 0.00869 ± 0.0023 | 0.00432 ± 0.00092 | 0.041 ± 0.0092
